Article PMC8584306, “Characterization of Novel Pathogenic Variants Causing Pyridox(am)ine 5′-Phosphate Oxidase-Dependent Epilepsy” (International Journal of Molecular Sciences, 2021)

T1: pyridox(am)ine 5′-phosphate oxidase (PNPO) (Homo sapiens, UniProt Q9NVS9)
T1 construct: homodimer with FMN
T1 sequence (Q9NVS9 1-261): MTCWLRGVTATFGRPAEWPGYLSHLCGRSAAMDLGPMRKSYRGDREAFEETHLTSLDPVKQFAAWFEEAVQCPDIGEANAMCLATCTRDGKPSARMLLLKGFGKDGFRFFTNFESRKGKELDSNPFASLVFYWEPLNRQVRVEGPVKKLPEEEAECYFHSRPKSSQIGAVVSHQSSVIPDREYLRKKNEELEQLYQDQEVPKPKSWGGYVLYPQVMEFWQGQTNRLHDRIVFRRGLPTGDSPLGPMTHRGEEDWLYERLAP


What follows are molecules tested against T1, pyridox(am)ine 5′-phosphate oxidase (PNPO) (assay: differential scanning fluorimetry). Settings: equimolar FMN added to 2 µM purified enzyme (already FMN-bound); range given for all PNPO forms.
Format: binding
Excerpt: differential scanning fluorimetry on pyridox(am)ine 5′-phosphate oxidase (PNPO) | equimolar amount of FMN stabilizes all the PNPO forms by increasing the Tm

Molecule | increase in Tm
Cc1cc2nc3c(=O)[nH]c(=O)nc-3n(C[C@H](O)[C@H](O)[C@H](O)COP(=O)(O)O)c2cc1C [FMN] | 2–3 °C

Molecular target: the molecule itself
Assay: SEC; gel filtration on a Superdex 200 10/300 GL column, as described previously [20]; elution profiles compared with the wild type
Settings: not given

Molecule | stoichiometry N
pyridox(am)ine 5′-phosphate oxidase, wild type (enzyme, human, human pyridox(am)ine 5′-phosphate oxidase (PNPO), recombinant; The vector pET28-PNPO is named only for the variants; also called PNPO; WT; source: recombinant, purified by the protocol of [4]) MTCWLRGVTATFGRPAEWPGYLSHLCGRSAAMDLGPMRKSYRGDREAFEETHLTSLDPVKQFAAWFEEAVQCPDIGEANAMCLATCTRDGKPSARMLLLKGFGKDGFRFFTNFESRKGKELDSNPFASLVFYWEPLNRQVRVEGPVKKLPEEEAECYFHSRPKSSQIGAVVSHQSSVIPDREYLRKKNEELEQLYQDQEVPKPKSWGGYVLYPQVMEFWQGQTNRLHDRIVFRRGLPTGDSPLGPMTHRGEEDWLYERLAP | 2
pyridox(am)ine 5′-phosphate oxidase D33V variant (enzyme, human, human PNPO, patient variant D33V made by site-directed mutagenesis in pET28-PNPO; also called PNPO D33V; source: E. coli Rosetta (DE3), purified as described in [4]) MTCWLRGVTATFGRPAEWPGYLSHLCGRSAAMVLGPMRKSYRGDREAFEETHLTSLDPVKQFAAWFEEAVQCPDIGEANAMCLATCTRDGKPSARMLLLKGFGKDGFRFFTNFESRKGKELDSNPFASLVFYWEPLNRQVRVEGPVKKLPEEEAECYFHSRPKSSQIGAVVSHQSSVIPDREYLRKKNEELEQLYQDQEVPKPKSWGGYVLYPQVMEFWQGQTNRLHDRIVFRRGLPTGDSPLGPMTHRGEEDWLYERLAP | 2
pyridox(am)ine 5′-phosphate oxidase E50K variant (enzyme, human, human PNPO, natural variant E50K made by site-directed mutagenesis in pET28-PNPO; also called PNPO E50K; source: E. coli Rosetta (DE3), purified as described in [4]) MTCWLRGVTATFGRPAEWPGYLSHLCGRSAAMDLGPMRKSYRGDREAFEKTHLTSLDPVKQFAAWFEEAVQCPDIGEANAMCLATCTRDGKPSARMLLLKGFGKDGFRFFTNFESRKGKELDSNPFASLVFYWEPLNRQVRVEGPVKKLPEEEAECYFHSRPKSSQIGAVVSHQSSVIPDREYLRKKNEELEQLYQDQEVPKPKSWGGYVLYPQVMEFWQGQTNRLHDRIVFRRGLPTGDSPLGPMTHRGEEDWLYERLAP | 2
pyridox(am)ine 5′-phosphate oxidase R161C variant (enzyme, human, human PNPO, patient variant R161C made by site-directed mutagenesis in pET28-PNPO; also called PNPO R161C; source: E. coli Rosetta (DE3), purified as described in [4]) MTCWLRGVTATFGRPAEWPGYLSHLCGRSAAMDLGPMRKSYRGDREAFEETHLTSLDPVKQFAAWFEEAVQCPDIGEANAMCLATCTRDGKPSARMLLLKGFGKDGFRFFTNFESRKGKELDSNPFASLVFYWEPLNRQVRVEGPVKKLPEEEAECYFHSCPKSSQIGAVVSHQSSVIPDREYLRKKNEELEQLYQDQEVPKPKSWGGYVLYPQVMEFWQGQTNRLHDRIVFRRGLPTGDSPLGPMTHRGEEDWLYERLAP | 2
pyridox(am)ine 5′-phosphate oxidase P213S variant (enzyme, human, human PNPO, patient variant P213S made by site-directed mutagenesis in pET28-PNPO; also called PNPO P213S; source: E. coli Rosetta (DE3), purified as described in [4]) MTCWLRGVTATFGRPAEWPGYLSHLCGRSAAMDLGPMRKSYRGDREAFEETHLTSLDPVKQFAAWFEEAVQCPDIGEANAMCLATCTRDGKPSARMLLLKGFGKDGFRFFTNFESRKGKELDSNPFASLVFYWEPLNRQVRVEGPVKKLPEEEAECYFHSRPKSSQIGAVVSHQSSVIPDREYLRKKNEELEQLYQDQEVPKPKSWGGYVLYSQVMEFWQGQTNRLHDRIVFRRGLPTGDSPLGPMTHRGEEDWLYERLAP | 2
